Series [1] deals with T1, TRBP-WT (human, UniProt Q15633 1-366).
T1 sequence: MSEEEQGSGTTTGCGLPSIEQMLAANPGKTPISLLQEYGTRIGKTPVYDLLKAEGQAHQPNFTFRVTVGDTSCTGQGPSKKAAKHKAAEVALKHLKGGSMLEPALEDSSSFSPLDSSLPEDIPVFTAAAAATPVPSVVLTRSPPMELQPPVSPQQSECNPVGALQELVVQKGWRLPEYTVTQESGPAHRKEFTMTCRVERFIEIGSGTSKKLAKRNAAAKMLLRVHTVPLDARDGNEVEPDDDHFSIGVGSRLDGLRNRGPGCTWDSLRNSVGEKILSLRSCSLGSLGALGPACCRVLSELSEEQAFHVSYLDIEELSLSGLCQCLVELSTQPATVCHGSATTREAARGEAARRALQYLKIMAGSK
Nature of the series: EMSA; EMSA: 20 mM Tris pH 7.5, 150 mM NaCl, 2 mM EDTA, 1 mM 2-mercaptoethanol, 1 mM DTT, 50 ng/ul salmon sperm DNA, 0.4 U/ul RNasin, 0.5 nM 32P-siRNA, 30 min on ice. Particulars: protein: recombinant, tags: N-His6;C-myc, label: 32P.

Series [2] has as its target T2, PACT-WT (N-terminal His- and C-terminal myc-tagged protein activator of PKR) (human), O75569.
T2 chain: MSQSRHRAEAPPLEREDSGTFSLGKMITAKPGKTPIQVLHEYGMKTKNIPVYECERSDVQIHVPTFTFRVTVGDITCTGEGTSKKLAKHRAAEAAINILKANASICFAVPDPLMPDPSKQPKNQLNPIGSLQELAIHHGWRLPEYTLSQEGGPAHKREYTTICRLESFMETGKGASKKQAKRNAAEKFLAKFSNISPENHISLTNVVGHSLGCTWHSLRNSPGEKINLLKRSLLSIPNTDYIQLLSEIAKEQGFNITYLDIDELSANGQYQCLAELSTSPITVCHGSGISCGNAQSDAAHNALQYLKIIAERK
Kind of series: SEC; Superdex 200 HR 10/30; purified protein (TRBP proteins 1,300 nM, 330-1,300 nM in Figure S3; PACT concentration not stated) pre-incubated with siLuc-36 siRNA (300 nM) 30 min on ice; 20 mM Tris pH 7.5, 150 mM NaCl, 2 mM EDTA, 1 mM 2-mercaptoethanol, 1 mM DTT; fractions blotted with anti-myc. Particulars: remark: other sources report otherwise. For orientation: In gel filtration, larger molecules generally elute earlier.

Series [3] deals with the molecule itself. The description is as above.
Series [4] concerns the molecule itself. Nature of the series: native gel or EMSA; purified protein 0-1,300 nM with 0.5 nM 32P-labeled siRNA, 30 min on ice; 20 mM Tris pH 7.5, 150 mM NaCl, 2 mM EDTA, 1 mM 2-mercaptoethanol, 1 mM DTT, salmon sperm DNA, RNasin; 9% polyacrylamide gel; Kd from siRNA-binding curves; complex 2 = second protein molecule joining the protein-siRNA complex 1.
For series [5], the target named is T1, TRBP-WT. Nature of the series: EMSA; complex 1 (monomer); EMSA: 20 mM Tris pH 7.5, 150 mM NaCl, 2 mM EDTA, 1 mM 2-mercaptoethanol, 1 mM DTT, 50 ng/ul salmon sperm DNA, 0.4 U/ul RNasin, 0.5 nM 32P-siRNA, 30 min on ice. The conditions noted are these: protein: recombinant, tags: N-His6;C-myc, label: 32P guide strand. (In general: A gel shift assay detects complexes by their altered migration in electrophoresis.)

In series [6] the target is T3, TRBP-ΔdsRBD3 (human, UniProt Q15633 1-292).
T3 sequence: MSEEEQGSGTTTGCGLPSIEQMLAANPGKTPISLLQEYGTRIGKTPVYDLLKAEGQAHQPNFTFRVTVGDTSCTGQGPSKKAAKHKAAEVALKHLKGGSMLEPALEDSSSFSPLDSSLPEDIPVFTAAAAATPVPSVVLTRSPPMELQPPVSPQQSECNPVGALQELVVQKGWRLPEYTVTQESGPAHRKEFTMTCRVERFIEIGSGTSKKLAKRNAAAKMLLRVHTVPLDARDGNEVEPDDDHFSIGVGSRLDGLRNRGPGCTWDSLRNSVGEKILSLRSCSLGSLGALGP
Kind of series: EMSA; complex 1; EMSA: 20 mM Tris pH 7.5, 150 mM NaCl, 2 mM EDTA, 1 mM 2-mercaptoethanol, 1 mM DTT, 50 ng/ul salmon sperm DNA, 0.4 U/ul RNasin, 0.5 nM 32P-siRNA, 30 min on ice. Particulars: protein: recombinant; tags: N-His6;C-myc; label: 32P guide strand; 2 nt 3' overhangs.

Where a chain is given by its changes, count along the chain named.

B1: dsDNA_Luc-36 (dsDNA)
DNA 1: TCTTCCAGCGGATAGAATGGC
DNA 2: CATTCTATCCGCTGGAAGATG
For B1, the binding result in series [1] was “no binding”.

B2: PACT-WT (N-terminal His- and C-terminal myc-tagged protein activator of PKR), O75569 1-313 (natural protein)
chain: T2 chain
Broadly, the stoichiometry N is a count of units in the complex or per binding partner. For the molecule B2, in series [2], the stoichiometry N turned out to be 2.

B3: PACT-dsRBDmt2 (natural protein, human, UniProt O75569 1-313, looked up)
chain: T2 chain with K177A, K178A
notes: human PACT with lysines 177 and 178 in dsRBD2 replaced with alanines; source: E. coli Rosetta (DE3) pLysS, purified (Ni-NTA agarose); not shown: His6, N-terminal, kept; myc, C-terminal, kept
Turning to B3, the “stoichiometry N” value in series [3] was found to be 2.

B4: PACT-dsRBDmt1 (natural protein, human, UniProt O75569 1-313, looked up)
chain: T2 chain with K84A, K85A
notes: human PACT with lysines 84 and 85 in dsRBD1 replaced with alanines; source: E. coli Rosetta (DE3) pLysS, purified (Ni-NTA agarose); not shown: His6, N-terminal, kept; myc, C-terminal, kept
In the case of B4, the “stoichiometry N” value in series [3] was determined as 2.

Regarding UCUUCCAGCGGAUAGAAUGGC (ssRNA) [ssRNA_Luc-36], the binding result in series [1] (single strand) is “no binding”.

B5: TRBP-dsRBDmt1 (natural protein, human, UniProt Q15633 1-366, looked up)
chain: T1 sequence with K80A, K81A
notes: full length human TRBP with lysines 80 and 81 in dsRBD1 replaced with alanines; source: E. coli Rosetta (DE3) pLysS, purified (Ni-NTA agarose); not shown: His6, N-terminal, kept; myc, C-terminal, kept
As to B5, in series [4], the binding result was “binds”.

B6: TRBP-dsRBDmt2 (natural protein, human, UniProt Q15633 1-366, looked up)
chain: T1 sequence with K210A, K211A
notes: full length human TRBP with lysines 210 and 211 in dsRBD2 replaced with alanines; source: E. coli Rosetta (DE3) pLysS, purified (Ni-NTA agarose); not shown: His6, N-terminal, kept; myc, C-terminal, kept
On to B6, for which the binding result in series [4] is “binds”.

B7: siLuc-36B (dsRNA)
RNA 1: UCUUCCAGCGGAUAGAAUGGC
RNA 2: GCCAUUCUAUCCGCUGGAAGA
In general, Kd refers to the free concentration of one partner at which half of the binding sites on the other are occupied at equilibrium, for simple one-to-one binding. Take B7: in series [5] (blunt), the Kd was 4.5 nM.

B8: siLuc-36 (dsRNA)
RNA 1: UCUUCCAGCGGAUAGAAUGGC
RNA 2: CAUUCUAUCCGCUGGAAGAUG
On to B8, for which the Kd in series [6] is 5 nM; in series [5] (2 nt 3' overhangs) it was 5.3 nM.

B9: siLuc2-153B (dsRNA)
RNA 1: UCGAAGUAUUCCGCGUACGUG
RNA 2: CACGUACGCGGAAUACUUCGA
Take B9: the Kd in series [5] (blunt) came out at 5.1 nM.

B10: siLuc-30 (dsRNA)
RNA 1: UCUUCAUAGAAUGGCGCCGGG
RNA 2: CGGCGCCAUUCUAUGAAGAUG
Take B10: the Kd in series [5] (2 nt 3' overhangs) worked out at 6.2 nM.

B11: dsDNA_Luc2-153 (dsDNA)
DNA 1: TCGAAGTATTCCGCGTACGTG
DNA 2: CGTACGCGGAATACTTCGATT
Consider B11, for which the binding result in series [1] is given as “no binding”.

B12: siLuc-1430 (dsRNA)
RNA 1: CGGCGGCGGGAAGUUCACCGG
RNA 2: GGUGAACUUCCCGCCGCCGUU
With B12, in series [5] (2 nt 3' overhangs), the Kd turned out to be 5.7 nM.

With UCGAAGUAUUCCGCGUACGUG (ssRNA) [ssRNA_Luc2-153], the binding result in series [1] (single strand) was “no binding”.

B13: siLuc-48 (dsRNA)
RNA 1: CCAGCGGUUCCAUCUUCCAGC
RNA 2: UGGAAGAUGGAACCGCUGGAG
Turning to B13, the Kd in series [5] (2 nt 3' overhangs) was determined as 33 nM.

B14: siLuc-18 (dsRNA)
RNA 1: GGCGCCGGGCCUUUCUUUAUG
RNA 2: UAAAGAAAGGCCCGGCGCCAU
In the case of B14, the Kd in series [5] (2 nt 3' overhangs) was 5.8 nM.

These data come from paper PMC3642127, “Distinguishable In Vitro Binding Mode of Monomeric TRBP and Dimeric PACT with siRNA” (PLoS ONE, 2013).
